{"source": "patent US20150023971A1", "binders": {"B1": {"name": "recombinant his-S-tagged pro-domain of human BDNF (residues Ala1-Arg110), from pET-30 Xa/LIC, E. coli (protein, not shown: small tags and cut ends)", "chain": "APMKEANIRGQGGLAYPGVRTHGTLESVNGPKAGSGLTSLADTFEHVIEELLDEDQKVRPNEENNKDADLYTSRVMLSSQVPLEPPLLFLLEEYKNYLDAANMSMRVRR"}}, "key": {"RSSD": {"target": "T1, RSSD", "T1 sequence (peptide)": "RSSD", "experiment": "SPOT length analysis, dot 82, anti-histidine detection"}, "[1]": {"target": "T2, …", "T2 sequence (peptide)": "SDFAKNFVQTD", "experiment": "SPOT length analysis, dot 21, anti-histidine detection"}, "[2]": {"target": "T3, …", "T3 sequence (peptide)": "IFRSSDFAKNF", "experiment": "SPOT length analysis, dot 17, anti-histidine detection"}, "[3]": {"target": "T4, …", "T4 sequence (peptide)": "RIFRSSDFAKN", "experiment": "SPOT length analysis, dot 16, HRP-S-protein detection"}, "RIFRSS": {"target": "T5, RIFRSS", "T5 sequence (peptide)": "RIFRSS", "experiment": "SPOT length analysis, dot 56, HRP-S-protein detection"}, "NFVQT [4]": {"target": "T6, NFVQT", "T6 sequence (peptide)": "NFVQT", "experiment": "SPOT length analysis, dot 77, anti-histidine detection"}, "[5]": {"target": "T7, sortilin peptide … on SPOT membrane", "T7 sequence (peptide, C-terminus anchored to the cellulose membrane through a beta-alanine linker)": "RIFRSSDFAKNFVQTD", "experiment": "SPOT length analysis, dot 1, HRP-S-protein detection"}, "DFAKNF": {"target": "T8, DFAKNF", "T8 sequence (peptide)": "DFAKNF", "experiment": "SPOT length analysis, dot 62, anti-histidine detection"}, "NFVQT [6]": {"target": "T6, NFVQT", "experiment": "SPOT length analysis, dot 77, HRP-S-protein detection"}, "[7]": {"target": "T9, …", "T9 sequence (peptide)": "FRSSDFAKNFVQ", "experiment": "SPOT length analysis, dot 13, HRP-S-protein detection"}, "SDFAK": {"target": "T10, SDFAK", "T10 sequence (peptide)": "SDFAK", "experiment": "SPOT length analysis, dot 72, anti-histidine detection"}, "[8]": {"target": "T11, …", "T11 sequence (peptide)": "RSSDFAKNF", "experiment": "SPOT length analysis, dot 32, HRP-S-protein detection"}, "FVQTD": {"target": "T12, FVQTD", "T12 sequence (peptide)": "FVQTD", "experiment": "SPOT length analysis, dot 78, HRP-S-protein detection"}, "[9]": {"target": "T13, …", "T13 sequence (peptide)": "RSSDFAKNFVQ", "experiment": "SPOT length analysis, dot 19, anti-histidine detection"}, "[10]": {"target": "T14, …", "T14 sequence (peptide)": "DFAKNFVQT", "experiment": "SPOT length analysis, dot 35, anti-histidine detection"}, "IFRSSD": {"target": "T15, IFRSSD", "T15 sequence (peptide)": "IFRSSD", "experiment": "SPOT length analysis, dot 57, HRP-S-protein detection"}, "[11]": {"target": "T2, …", "experiment": "SPOT length analysis, dot 21, HRP-S-protein detection"}, "SDFA": {"target": "T16, SDFA", "T16 sequence (peptide)": "SDFA", "experiment": "SPOT length analysis, dot 84, HRP-S-protein detection"}, "[12]": {"target": "T17, …", "T17 sequence (peptide)": "FRSSDFAKNFV", "experiment": "SPOT length analysis, dot 18, HRP-S-protein detection"}, "[13]": {"target": "T18, …", "T18 sequence (peptide)": "FRSSDFAKN", "experiment": "SPOT length analysis, dot 31, HRP-S-protein detection"}, "FRSS": {"target": "T19, FRSS", "T19 sequence (peptide)": "FRSS", "experiment": "SPOT length analysis, dot 81, HRP-S-protein detection"}, "[14]": {"target": "T20, …", "T20 sequence (peptide)": "RSSDFAKNFV", "experiment": "SPOT length analysis, dot 25, anti-histidine detection"}, "[15]": {"target": "T21, …", "T21 sequence (peptide)": "RSSDFAKNFVQT", "experiment": "SPOT length analysis, dot 14, anti-histidine detection"}, "SSDF": {"target": "T22, SSDF", "T22 sequence (peptide)": "SSDF", "experiment": "SPOT length analysis, dot 83, HRP-S-protein detection"}, "FAKN [16]": {"target": "T23, FAKN", "T23 sequence (peptide)": "FAKN", "experiment": "SPOT length analysis, dot 86, anti-histidine detection"}, "[17]": {"target": "T24, …", "T24 sequence (peptide)": "RIFRSSDFA", "experiment": "SPOT length analysis, dot 29, HRP-S-protein detection"}, "KNFVQT": {"target": "T25, KNFVQT", "T25 sequence (peptide)": "KNFVQT", "experiment": "SPOT length analysis, dot 65, HRP-S-protein detection"}, "[18]": {"target": "T26, …", "T26 sequence (peptide)": "IFRSSDFAKNFV", "experiment": "SPOT length analysis, dot 12, anti-histidine detection"}, "FAKN [19]": {"target": "T23, FAKN", "experiment": "SPOT length analysis, dot 86, HRP-S-protein detection"}, "[20]": {"target": "T27, sortilin 4-mer peptide RIFR (length analysis)", "T27 sequence (peptide, C-terminus anchored to the cellulose membrane through a beta-alanine linker)": "RIFR", "experiment": "SPOT length analysis, dot 79, HRP-S-protein detection"}, "[21]": {"target": "T28, …", "T28 sequence (peptide)": "RIFRSSDFAKNFV", "experiment": "SPOT length analysis, dot 7, anti-histidine detection"}, "[22]": {"target": "T29, …", "T29 sequence (peptide)": "IFRSSDFAKNFVQTD", "experiment": "SPOT length analysis, dot 3, HRP-S-protein detection"}, "KNFVQTD [23]": {"target": "T30, KNFVQTD", "T30 sequence (peptide)": "KNFVQTD", "experiment": "SPOT length analysis, dot 55, anti-histidine detection"}, "KNFVQTD [24]": {"target": "T30, KNFVQTD", "experiment": "SPOT length analysis, dot 55, HRP-S-protein detection"}}}
{"binder": "B1", "values": [{"measurement": "BLU His", "setting": "RSSD", "result": 15000, "unit": "BLU"}, {"measurement": "BLU His", "setting": "[1]", "result": 15700, "unit": "BLU"}, {"measurement": "BLU His", "setting": "[2]", "result": 40700, "unit": "BLU"}, {"measurement": "BLU Sprotein", "setting": "[3]", "result": 63600, "unit": "BLU"}, {"measurement": "BLU Sprotein", "setting": "RIFRSS", "result": 94400, "unit": "BLU"}, {"measurement": "BLU His", "setting": "NFVQT [4]", "result": 17300, "unit": "BLU"}, {"measurement": "BLU Sprotein", "setting": "[5]", "result": 137000, "unit": "BLU"}, {"measurement": "BLU His", "setting": "DFAKNF", "result": 15200, "unit": "BLU"}, {"measurement": "BLU Sprotein", "setting": "NFVQT [6]", "result": 15600, "unit": "BLU"}, {"measurement": "BLU Sprotein", "setting": "[7]", "result": 199000, "unit": "BLU"}, {"measurement": "BLU His", "setting": "SDFAK", "result": 15900, "unit": "BLU"}, {"measurement": "BLU Sprotein", "setting": "[8]", "result": 19500, "unit": "BLU"}, {"measurement": "BLU Sprotein", "setting": "FVQTD", "result": 15100, "unit": "BLU"}, {"measurement": "BLU His", "setting": "[9]", "result": 26000, "unit": "BLU"}, {"measurement": "BLU His", "setting": "[10]", "result": 19100, "unit": "BLU"}, {"measurement": "BLU Sprotein", "setting": "IFRSSD", "result": 18100, "unit": "BLU"}, {"measurement": "BLU Sprotein", "setting": "[11]", "result": 16900, "unit": "BLU"}, {"measurement": "BLU Sprotein", "setting": "SDFA", "result": 13300, "unit": "BLU"}, {"measurement": "BLU Sprotein", "setting": "[12]", "result": 448000, "unit": "BLU"}, {"measurement": "BLU Sprotein", "setting": "[13]", "result": 20300, "unit": "BLU"}, {"measurement": "BLU Sprotein", "setting": "FRSS", "result": 37000, "unit": "BLU"}, {"measurement": "BLU His", "setting": "[14]", "result": 23000, "unit": "BLU"}, {"measurement": "BLU His", "setting": "[15]", "result": 24700, "unit": "BLU"}, {"measurement": "BLU Sprotein", "setting": "SSDF", "result": 14000, "unit": "BLU"}, {"measurement": "BLU His", "setting": "FAKN [16]", "result": 15200, "unit": "BLU"}, {"measurement": "BLU Sprotein", "setting": "[17]", "result": 60900, "unit": "BLU"}, {"measurement": "BLU Sprotein", "setting": "KNFVQT", "result": 14300, "unit": "BLU"}, {"measurement": "BLU His", "setting": "[18]", "result": 45100, "unit": "BLU"}, {"measurement": "BLU Sprotein", "setting": "FAKN [19]", "result": 13700, "unit": "BLU"}, {"measurement": "BLU Sprotein", "setting": "[20]", "result": 166000, "unit": "BLU"}, {"measurement": "BLU His", "setting": "[21]", "result": 102000, "unit": "BLU"}, {"measurement": "BLU Sprotein", "setting": "[22]", "result": 76200, "unit": "BLU"}, {"measurement": "BLU His", "setting": "KNFVQTD [23]", "result": 18300, "unit": "BLU"}, {"measurement": "BLU Sprotein", "setting": "KNFVQTD [24]", "result": 16800, "unit": "BLU"}]}
